Results taken from publication doi:10.1101/2020.07.03.182295 (bioRxiv, 2020).

Biological target: the molecule itself
Test: SEC

B1: R54C αA-crystallin (recombinant human) (natural protein)
chain: MDVTIQHPWFKRTLGPFYPSRLFDQFFGEGLFEYDLLPFLSSTISPYYRQSLFCTVLDSGISEVRSDRDKFVIFLDVKHFSPEDLTVKVQDDFVEIHGKHNERQDDHGYISREFHRRYRLPSNVDQSALSCSLSADGMLTFCGPKIQTGLDATHAERAIPVSREEKPTSAPSS
binding result: binds
